# In patent publication US20140038892A1:
# Biological target: FGFR3-IIIc (UniProt P22607)
# Assay: cell-based or functional assay
# Chain of FGFR3-IIIc (P22607 23-806): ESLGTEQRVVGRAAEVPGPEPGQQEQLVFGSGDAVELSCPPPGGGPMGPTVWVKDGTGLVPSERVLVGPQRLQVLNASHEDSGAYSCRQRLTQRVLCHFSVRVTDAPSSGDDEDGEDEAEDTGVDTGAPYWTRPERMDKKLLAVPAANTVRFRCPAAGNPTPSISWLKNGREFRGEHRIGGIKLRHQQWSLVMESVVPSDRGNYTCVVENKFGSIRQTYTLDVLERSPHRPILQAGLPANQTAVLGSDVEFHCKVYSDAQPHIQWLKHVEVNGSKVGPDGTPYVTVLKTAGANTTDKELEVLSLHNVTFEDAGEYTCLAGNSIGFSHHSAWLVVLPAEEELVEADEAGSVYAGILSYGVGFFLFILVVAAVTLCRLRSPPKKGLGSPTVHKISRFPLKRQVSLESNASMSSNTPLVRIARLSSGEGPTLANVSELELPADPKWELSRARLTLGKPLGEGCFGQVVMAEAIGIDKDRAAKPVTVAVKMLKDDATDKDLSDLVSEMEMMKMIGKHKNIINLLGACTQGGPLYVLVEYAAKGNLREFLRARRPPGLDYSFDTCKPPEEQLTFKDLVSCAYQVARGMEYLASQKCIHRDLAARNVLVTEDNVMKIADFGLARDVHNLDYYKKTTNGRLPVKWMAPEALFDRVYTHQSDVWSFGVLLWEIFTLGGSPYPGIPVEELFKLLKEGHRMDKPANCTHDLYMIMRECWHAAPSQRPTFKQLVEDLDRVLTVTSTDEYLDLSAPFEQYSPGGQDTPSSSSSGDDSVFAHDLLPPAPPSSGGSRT
# Chain of FGF18 Δ51 - HA (234 Kd) conjugate (O76093 52-207, tags or fused parts left off): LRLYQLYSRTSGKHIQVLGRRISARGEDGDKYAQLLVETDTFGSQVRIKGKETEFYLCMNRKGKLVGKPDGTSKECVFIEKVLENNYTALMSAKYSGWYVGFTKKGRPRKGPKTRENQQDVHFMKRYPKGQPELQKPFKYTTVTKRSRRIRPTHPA
# Chain of FGF18 - HA (234 Kd) conjugate (O76093 28-207 limits assumed): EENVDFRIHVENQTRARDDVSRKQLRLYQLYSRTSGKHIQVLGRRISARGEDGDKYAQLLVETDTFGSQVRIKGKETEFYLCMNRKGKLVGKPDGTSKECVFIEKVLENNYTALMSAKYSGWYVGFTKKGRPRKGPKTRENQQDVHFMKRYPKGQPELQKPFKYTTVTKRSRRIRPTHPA
# Chain of FGF18 w.t. (O76093 28-207 limits assumed): as above
# Chain of FGF18 Δ33 - HA (234 Kd) conjugate (O76093 34-207, tags or fused parts left off): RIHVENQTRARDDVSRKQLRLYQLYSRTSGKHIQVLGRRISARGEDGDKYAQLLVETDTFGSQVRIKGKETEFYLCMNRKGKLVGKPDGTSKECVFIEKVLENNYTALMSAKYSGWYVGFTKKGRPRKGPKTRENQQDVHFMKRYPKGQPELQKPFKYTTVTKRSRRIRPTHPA
# Chain of FGF-18 delta33 (O76093 other isoform, or with tags, fused parts or gaps mutant limits assumed): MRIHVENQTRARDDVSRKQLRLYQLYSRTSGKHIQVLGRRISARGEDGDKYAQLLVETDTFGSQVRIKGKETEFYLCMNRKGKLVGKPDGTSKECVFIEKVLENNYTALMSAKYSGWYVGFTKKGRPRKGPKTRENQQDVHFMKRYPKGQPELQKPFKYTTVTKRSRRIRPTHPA
# Chain of FGF-18 delta51 (O76093 other isoform, or with tags, fused parts or gaps mutant limits assumed): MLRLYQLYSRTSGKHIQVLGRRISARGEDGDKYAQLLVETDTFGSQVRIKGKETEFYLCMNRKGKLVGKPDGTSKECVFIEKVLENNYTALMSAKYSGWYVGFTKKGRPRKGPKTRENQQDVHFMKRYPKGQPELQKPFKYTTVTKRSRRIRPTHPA
Mitogenic activity in FDCP cell lines assay (EC50),"Mitogenic activity, FGFR-transfected FDCP cell lines assay (EC50)",Mitogenic activity FDCP-R3 (EC50),"Mitogenic activity in FDCP cell lines assay, Conjugates EC50, +Hyaluronidase","Mitogenic activity in FDCP cell lines assay, Conjugates EC50, -Hyaluronidase",Substance
1 ng/mL,1 ng/mL,,,,FGF2 (from UniProt P09038 134-288) (ligand)
,,< 3 ng/mL,,,FGF2 - CMC (90 Kd) conjugate (from UniProt P09038 134-288) (ligand)
,,< 3 ng/mL,,,FGF2 - CMC (250 Kd) conjugate (from UniProt P09038 134-288) (ligand)
,,< 3 ng/mL,,,FGF2 - HA (17 Kd) conjugate (from UniProt P09038 134-288) (ligand)
,,< 5 ng/mL,,,FGF2 - HA (74 Kd) conjugate (from UniProt P09038 134-288) (ligand)
,,< 5 ng/mL,,,FGF2 - HA (132 Kd) conjugate (from UniProt P09038 134-288) (ligand)
,,< 5 ng/mL,,,FGF2 - HA (234 Kd) conjugate (from UniProt P09038 134-288) (ligand)
,,,< 5 ng/mL,> 20 ng/mL,FGF2 conjugate with HA-hyd (10% hydrazido groups) - BMPS (from UniProt P09038 134-288) (ligand)
,,,< 5 ng/mL,> 40 ng/mL,FGF2 conjugate with HA-hyd (10% hydrazido groups) - EMCS (from UniProt P09038 134-288) (ligand)
,,,< 5 ng/mL,> 20 ng/mL,FGF2 conjugate with HA-hyd (10% hydrazido groups) - GMBS (from UniProt P09038 134-288) (ligand)
,,,< 5 ng/mL,> 10 ng/mL,FGF2 conjugate with HA-hyd (10% hydrazido groups) - SMPH (from UniProt P09038 134-288) (ligand)
,,,> 15 ng/mL,> 15 ng/mL,FGF2 conjugate with HA-hyd (40% hydrazido groups) - BMPS (from UniProt P09038 134-288) (ligand)
,,,< 5 ng/mL,< 5 ng/mL,FGF2 conjugate with HA-hyd (40% hydrazido groups) - SMPH (from UniProt P09038 134-288) (ligand)
,,< 10 ng/mL,,,FGF18 - HA (234 Kd) conjugate (from UniProt O76093 28-207) (ligand)
,5 ng/mL,,,,FGF18 w.t. (from UniProt O76093 28-207) (ligand)
,,< 6.8 ng/mL,,,FGF18 Δ33 - HA (234 Kd) conjugate (from UniProt O76093 34-207) (ligand)
,,< 12.5 ng/mL,,,FGF18 Δ51 - HA (234 Kd) conjugate (from UniProt O76093 52-207) (ligand)
,3.5 ng/mL,,,,FGF-18 delta33 (from UniProt O76093 34-207) (ligand)
,5.5 ng/mL,,,,FGF-18 delta51 (from UniProt O76093 52-207) (ligand)
